Experimental data from patent publication US8680041B2, “Genetic variations associated with tumors” (Genentech, Inc., priority 2006, dated 2014).

Tests used:
p110alpha H1047R = biological target: T1, p110alpha H1047R (Homo sapiens, UniProt P42336, H1047R); test: Co-immunoprecipitation of HA-tagged p85α with p110α in transfected Cos 7 cells; format: binding; parameters: key: “yes” (“Y”); “no” (“N”); details: HA bead immunoprecipitation, blot
T1 construct: expressed in transfected cells; host or cells: Cos 7
Protocol: (§1) The ability of p85α mutants to bind to p110α was assessed. Cos 7 cells were transiently transfected with nucleic acid encoding N-terminally HA-tagged p85α protein (either wild-type or mutant, as indicated in Table 2 below) and with nucleic acid encoding p110α (either wild-type or mutant, as indicated in Table 2 below). Proteins were immunoprecipitated using HA beads, separated by SDS-PAGE, transferred to nitrocellulose, and detected using anti-HA and anti-p110α antibodies. Binding of p85α to p110α is indicated as either “yes” (“Y”) or “no” (“N”) in Table 2. In the second row of Table 2, the term “p85 Dominant Negative” refers to a known dominant negative form of p85α in which the p110α binding domain from amino acids 479-513 is deleted. The remaining mutant forms of p85α listed in the first column of Table 2 were discovered pursuant to this study. In the header row of Table 2, the terms “p110alpha E545K” and “p110alpha H1047R” refer to two known mutational “hot spots” in p110α which result in constitutively active p110α.

p110alpha WT = biological target: T2, p110alpha WT (Homo sapiens, UniProt P42336); test: as above; format: binding; parameters: key: “yes” (“Y”); “no” (“N”); details: HA bead immunoprecipitation, blot
T2 construct: expressed in transfected cells; host or cells: Cos 7
Protocol: as §1

p110alpha E545K = biological target: T3, p110alpha E545K (Homo sapiens, UniProt P42336, E545K); test: as above; format: binding; parameters: key: “yes” (“Y”); “no” (“N”); details: HA bead immunoprecipitation, blot
T3 construct: expressed in transfected cells; host or cells: Cos 7
Protocol: as §1

wild-type p110α = test: Fluorescence polarization assay of p110α activity in p85α/p110α complexes, phosphoinositide as substrate; format: biochemical; details: for p110α activity of the complex compared with the wild type complex (in words): absence of peptide; for Activity of p110α in the complex, No peptide: no phosphotyrosine peptide; for Activity of p110α in the complex, No peptide / Activity of p110α in the complex, Peptide (1 uM): normalized to wild-type complex in the absence of peptide; for Activity of p110α in the complex, Peptide (1 uM): phosphotyrosine (IRS-1) peptide 1 uM
Protocol: The ability of p85α mutant proteins to form active complexes with p110α was also assessed. Complexes consisting of p85α protein (either wild-type or mutant, as indicated in Table 3 below) and wild-type p110α were expressed in baculovirus. Activity of p110α in the complexes was assessed using a fluorescence polarization assay with phosphoinositide as the substrate. The assay was conducted in the absence or presence of a phosphotyrosine peptide (referred to as “peptide” in Table 3 below). That peptide corresponds to a phosphotyrosine-containing region of Insulin Receptor Substrate-1 that binds to the SH2 region of p85α and enhances the activity of the wild-type p85α/p110α complex. See Miled et al., Science, 317:239-242 (2007). The p85α mutants tested in Table 3 have mutations in their C-terminal SH2 domains. The activities were normalized to the value obtained for p110α in the wild-type complex in the absence of peptide.

T3 sequence (P42336 whole entry E545K): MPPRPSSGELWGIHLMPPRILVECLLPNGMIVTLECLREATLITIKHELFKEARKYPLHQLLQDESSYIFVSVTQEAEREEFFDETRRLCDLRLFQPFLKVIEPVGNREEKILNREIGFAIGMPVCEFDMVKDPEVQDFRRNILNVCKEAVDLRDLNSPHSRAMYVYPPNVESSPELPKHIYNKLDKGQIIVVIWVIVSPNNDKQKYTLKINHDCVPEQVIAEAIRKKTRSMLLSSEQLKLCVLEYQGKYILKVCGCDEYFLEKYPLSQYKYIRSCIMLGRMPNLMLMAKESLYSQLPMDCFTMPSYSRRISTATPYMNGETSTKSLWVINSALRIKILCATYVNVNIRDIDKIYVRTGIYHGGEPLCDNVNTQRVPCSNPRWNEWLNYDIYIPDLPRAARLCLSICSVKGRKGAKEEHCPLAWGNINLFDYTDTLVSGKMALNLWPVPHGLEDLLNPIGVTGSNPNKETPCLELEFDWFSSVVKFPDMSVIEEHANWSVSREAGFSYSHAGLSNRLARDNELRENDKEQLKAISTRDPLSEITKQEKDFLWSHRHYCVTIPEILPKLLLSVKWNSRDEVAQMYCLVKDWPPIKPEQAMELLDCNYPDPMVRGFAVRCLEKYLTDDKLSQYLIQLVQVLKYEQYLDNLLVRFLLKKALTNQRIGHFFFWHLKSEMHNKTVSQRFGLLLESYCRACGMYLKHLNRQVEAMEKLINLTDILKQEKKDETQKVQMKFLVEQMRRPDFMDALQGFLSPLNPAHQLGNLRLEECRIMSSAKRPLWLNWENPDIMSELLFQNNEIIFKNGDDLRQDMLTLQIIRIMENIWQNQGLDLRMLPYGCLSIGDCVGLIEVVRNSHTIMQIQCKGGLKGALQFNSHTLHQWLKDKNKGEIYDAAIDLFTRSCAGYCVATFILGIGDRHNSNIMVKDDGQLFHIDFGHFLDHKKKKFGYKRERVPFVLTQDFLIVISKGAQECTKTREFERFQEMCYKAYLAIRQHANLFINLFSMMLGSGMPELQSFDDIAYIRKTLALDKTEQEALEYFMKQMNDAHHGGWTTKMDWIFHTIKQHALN
T1 sequence (P42336 whole entry H1047R): as the sequence (P42336 whole entry E545K) above, with K545E, H1047R counted along it
T2 sequence (P42336 whole entry): as the sequence (P42336 whole entry E545K) above, with K545E counted along it

Molecule	Binding of p85α to p110α (p110alpha H1047R)	Binding of p85α to p110α (p110alpha WT)	Binding of p85α to p110α (p110alpha E545K)	p110α activity of the complex compared with the wild type complex (in words) (wild-type p110α)	Activity of p110α in the complex, No peptide (wild-type p110α)	Activity of p110α in the complex, Peptide (1 uM) (wild-type p110α)
p85 Dominant Negative: known dominant negative form of p85α in which the p110α binding domain from amino acids 479-513 is deleted [reference compound]	N	N	N	–	–	–
p85 R642stop: mutant form of p85α discovered pursuant to this study	Y	Y	Y	–	–	–
p85 E666K: mutant form of p85α discovered pursuant to this study	Y	Y	Y	comparable to that seen in the wild type complex	0.92	2.54
p85 N527K: mutant form of p85α discovered pursuant to this study	Y	Y	Y	decreased p110α activity	0.75	1.92
p85 N564D: mutant form of p85α discovered pursuant to this study	Y	Y	Y	increased p110α activity	1.71	2.47
p85 N285H: mutant form of p85α discovered pursuant to this study	Y	Y	Y	–	–	–
p85 R348stop: mutant form of p85α discovered pursuant to this study; truncated	N	N	N	–	–	–
p85 R649Q: mutant form of p85α discovered pursuant to this study	Y	Y	Y	decreased p110α activity	0.45	1.7
p85 A682V: mutant form of p85α discovered pursuant to this study	Y	Y	Y	–	–	–
p85 R543I: mutant form of p85α discovered pursuant to this study	Y	Y	Y	–	–	–
p85 R574I: mutant form of p85α discovered pursuant to this study	Y	Y	Y	–	–	–
p85 L449S: mutant form of p85α discovered pursuant to this study	Y	Y	Y	–	–	–
p85 WT: wild-type p85α, regulatory subunit of PI3K encoded by PIK3R1 [reference compound]	–	–	–	–	1	2.77
p85 R162stop: mutant form of p85α discovered pursuant to this study; truncated (protein, left off: small tags and cut ends, mutant form of p85α discovered pursuant to this study; truncated) MSAEGYQYRALYDYKKEREEDIDLHLGDILTVNKGSLVALGFSDGQEARPEEIGWLNGYNETTGERGDFPGTYVEYIGRKKISPPTPKPRPPRPLPVAPGSSKTEADVEQQALTLPDLAEQFAPPDIAPPLLIKLVEAIEKKGLECSTLYRTQSSSNLAEL	N	N	N	–	–	–
